Results from paper PMC3536657.

Legend:
[1] = target: b12 chimeric IgG, germline heavy chain paired with the mature light chain (human); assay: BLI; antibody-capture kinetics: IgG on biosensors, 2-fold serial dilutions of Env; mean of curves with R^2 >= 0.95
[2] = target: b12 chimeric IgG, mature heavy chain paired with the germline light chain (human); assay: as above
mature IgG b12 (human) = assay: as above
[3] = target: QH0692 gp120 (HIV-1 (clade B, isolate QH0692))
[4] = target: HXB2 gp120 (HIV-1 clade B, isolate HXB2) (UniProt P04578)

mature IgG b12 (human), sequence (heavy, as listed by the source, chain 1 of 2): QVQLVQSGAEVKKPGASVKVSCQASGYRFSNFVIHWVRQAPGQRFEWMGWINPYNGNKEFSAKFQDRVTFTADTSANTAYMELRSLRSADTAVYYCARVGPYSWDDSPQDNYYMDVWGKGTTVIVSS
mature IgG b12 (human), sequence (light, as listed by the source, chain 2 of 2): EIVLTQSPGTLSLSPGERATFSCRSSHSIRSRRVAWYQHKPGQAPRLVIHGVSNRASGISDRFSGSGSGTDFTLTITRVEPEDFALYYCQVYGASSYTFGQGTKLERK
b12 chimeric IgG, mature heavy chain paired with the germline light chain (human), sequence (light, as listed by the source, chain 2 of 2): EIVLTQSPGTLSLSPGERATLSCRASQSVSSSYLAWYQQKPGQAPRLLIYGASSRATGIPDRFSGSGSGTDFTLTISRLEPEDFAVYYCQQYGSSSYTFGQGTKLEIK
b12 chimeric IgG, germline heavy chain paired with the mature light chain (human), sequence (heavy, as listed by the source, chain 1 of 2): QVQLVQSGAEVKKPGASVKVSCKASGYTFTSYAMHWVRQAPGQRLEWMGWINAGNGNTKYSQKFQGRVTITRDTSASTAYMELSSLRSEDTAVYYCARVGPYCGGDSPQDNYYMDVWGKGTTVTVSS

| Substance | Ka [1] | Ka [2] | Ka (mature IgG b12 (human)) | Kd (mature IgG b12 (human)) | neutralisation of QH0692 virions (luciferase reporter cells), IC50 [3] | neutralisation of HXB2 virions (luciferase reporter cells), IC50 [4] |
| --- | --- | --- | --- | --- | --- | --- |
| QH0692 gp120 (natural protein) | 1.39e+07 M⁻¹ | 7.56e+06 M⁻¹ | 2e+09 M⁻¹ | 2 nM |  |  |
| mature IgG b12 (antibody) |  |  |  |  | 0.22 µg/mL | 0.002 µg/mL |
